Assay results published in PMC4513104, “Fatty Acid-binding Proteins Interact with Comparative Gene Identification-58 Linking Lipolysis with Lipid Ligand Shuttling*” (The Journal of Biological Chemistry, 2015).

Legend:
[1] = target: T1, m^solCgi-58 (mouse, UniProt Q9DBL9 2-351, S239E); experiment: NMR titration; 1H-15N HSQC of 50 μM 15N labeled A-Fabp with 0, 10, 25, 50, 100 and 200 μM m^solCgi-58; 15 mM Na2HPO4/KH2PO4, pH 7.0, 300 mM NaCl, 1 mM DTT, 1 mM EDTA; 298 K; conditions: both partners purified
T1 construct: mouse Cgi-58, Lys-2–Asp-351, with S239E; preceded by a TEV protease cleavage site and cleaved by TEV; used for NMR experiments only; also called mCgi-58^S239E; cgi-58_S239E variant with increased solubility; source: E. coli BL21(DE3), co-expressed with the chaperone Tig, purified (His-Trap, TEV cleavage, Superdex 200); not shown: His tag, N-terminal, cleaved; SUMO, N-terminal, cleaved
T1 sequence (looked up): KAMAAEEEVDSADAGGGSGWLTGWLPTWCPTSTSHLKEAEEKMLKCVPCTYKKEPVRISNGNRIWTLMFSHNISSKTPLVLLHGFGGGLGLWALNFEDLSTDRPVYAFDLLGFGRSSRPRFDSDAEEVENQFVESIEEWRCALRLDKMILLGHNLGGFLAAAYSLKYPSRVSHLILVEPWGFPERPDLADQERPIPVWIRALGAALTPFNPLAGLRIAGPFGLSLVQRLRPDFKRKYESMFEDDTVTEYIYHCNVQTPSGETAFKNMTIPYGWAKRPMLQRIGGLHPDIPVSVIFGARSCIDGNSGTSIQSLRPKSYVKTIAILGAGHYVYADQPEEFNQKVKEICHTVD

[2] = target: T2, Gst-Cgi-58 (mouse, UniProt Q9DBL9 1-351, Sulfo-SBED cross-linker covalently linked (label transfer); fluorescent label NT-495 by NHS coupling (microscale thermophoresis)); experiment: MST; Gst-tagged Cgi-58 labelled with NT-495 (NHS coupling) at constant amount; unlabeled Strep-tagged A-Fabp 8 nM to 250 μM; 100 mM Tris, pH 8.0, 150 mM NaCl, 1 mM EDTA, 0.05% Tween 20; Monolith NT.115, duplicate; conditions: both partners purified
T2 construct: comparative gene identification-58 (Cgi-58), mouse; also called Gst-tagged Cgi-58; mouse Gst-Cgi-58
T2 sequence (looked up): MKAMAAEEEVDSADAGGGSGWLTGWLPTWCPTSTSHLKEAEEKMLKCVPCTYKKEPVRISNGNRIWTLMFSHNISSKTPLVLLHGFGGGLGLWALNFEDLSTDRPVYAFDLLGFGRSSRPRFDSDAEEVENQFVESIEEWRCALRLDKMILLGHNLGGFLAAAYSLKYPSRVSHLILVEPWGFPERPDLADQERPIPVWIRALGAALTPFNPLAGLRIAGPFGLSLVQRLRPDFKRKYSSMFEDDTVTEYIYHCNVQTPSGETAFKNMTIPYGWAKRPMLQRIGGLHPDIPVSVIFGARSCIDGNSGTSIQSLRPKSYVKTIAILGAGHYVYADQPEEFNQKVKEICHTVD

binding result [1]: binds
Kd [2]: 192 ± 22 µM
B1: Strep-tagged A-Fabp (natural protein, human, UniProt P15090 1-132, looked up)
chain: MCDAFVGTWKLVSSENFDDYMKEVGVGFATRKVAGMAKPNMIISVNGDVITIKSESTFKNTEISFILGQEFDEVTADDRKVKSTITLDGGVLVHVQKWDGKSTTIKRKREDDKLVVECVMKGVTSTRVYERA
modifications: 15N (and 13C) labelled in the NMR experiments
notes: residue numbers start with methionine as the first amino acid; vector pASK-IBA5plus; also called Strep-A-Fabp; source: E. coli BL21(DE3), purified (Strep-Tactin)
